Measurements as given in the supplement of paper PMC12042874.
± gives the uncertainty stated by the source.

assay: amyloid nucleation score (Sup35N fusion, yeast selection) (log enrichment); library NNK1; higher = more nucleation; inactive = no reads after selection
In short: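 Output and input plasmid inserts were sequenced by Illumina after psi-negative yeast carrying Sup35N fused to peptides of 20 random codons had been induced 24 hours with 100 μM copper sulfate and grown 7 days at 30°C on medium lacking adenine and uracil. The nucleation score is the DiMSum log enrichment of output over input reads, centred on the mode score of non-aggregating sequences. Sequences with under 100 input reads were excluded.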

In the case of IAPMSRRFEGMACSFTDEEA, the amyloid nucleation score is reported as “inactive”.
In the case of GWCRG, the amyloid nucleation score is reported as “inactive”.
For MPCFCYTCGRVMLVRIRQTR, the amyloid nucleation score was “inactive”.

KYFGFSVHSLLCYNRSLFLS and VLKCRERRFRIHGHWTRRGP are within error of each other in amyloid nucleation score: -0.055 ± 0.35 for the first, -0.63 ± 0.47 for the second.

RVSVVQFMSKVPTRLMVIEW and RQSRVQGMYHY are within error of each other in amyloid nucleation score: 0.705 ± 0.65 for the first, 1.28 ± 0.48 for the second.

WGYDTHLLMNLRNVCIGFLR and TFSTGFGGIISLACVRRQYL are within error of each other in amyloid nucleation score: -0.431 ± 0.7 for the first, 0.049 ± 0.88 for the second.

Compared with WLFSPNVFVNFCFG, TISLDRRDAVNYLVAHLCSV is lower in amyloid nucleation score: 6.913 ± 0.055 for the first, -0.146 ± 1.4 for the second.

YVESGTFTDPRFWVSFAVCF and EQHCNAMGVSRSGPWCDGEV are within error of each other in amyloid nucleation score: 0.791 ± 0.54 for the first, 0.051 ± 0.85 for the second.

YTRSVL and GYHSMLSLDDQIFVKLHDAK are within error of each other in amyloid nucleation score: 0.2 ± 0.23 for the first, 0.135 ± 1.2 for the second.

Going from YLLQSAIFGAGVHT to TVFIKLKVFAMN, the amyloid nucleation score rises from 0.672 ± 0.39 to 1.53 ± 0.18.

ASNAARLLPDRISGSEAF and PILCGTSLSQINDYYGV are within error of each other in amyloid nucleation score: 0.591 ± 0.71 for the first, -0.369 ± 0.56 for the second.

Going from SFGPIVCGFVVKRMWKCNIG to DGHKGEDSMAKLNFIFRLYS, the amyloid nucleation score falls from 3.63 ± 0.12 to -0.33 ± 0.38.

First: AGQVYRFAVSVRSSKLIVAR
Second: FCICNRKRHNPSPEKKNA
The amyloid nucleation score of the first is higher: 0.966 ± 0.45 for the first, -1.36 ± 0.91 for the second.

Compared with YFVSCLFILWPRQSSTRPFE, CVYSFNWLRLLGALSG is lower in amyloid nucleation score: 8.165 ± 0.077 for the first, 2.18 ± 0.24 for the second.

RCCKQTSRVDMC and VHTVYLLVDTR are within error of each other in amyloid nucleation score: 0.156 ± 1.6 for the first, 0.289 ± 1.2 for the second.

LWVFGCCIVRMIR and IVPPLSNCSFIG are within error of each other in amyloid nucleation score: 0.047 ± 0.74 for the first, -0.293 ± 0.6 for the second.

VFGVGGTYLFIDVEAVWGSG and IMCIHSFCFCLRPSHLIVGG are within error of each other in amyloid nucleation score: 1.61 ± 0.57 for the first, 0.774 ± 0.41 for the second.

FNYVILTFWVKYTFSAHCV and TTDSVDDTRKYAYGFIACGV are within error of each other in amyloid nucleation score: -0.271 ± 0.64 for the first, 0.114 ± 0.47 for the second.

First: CRHLFNWASWSTFTRIS
Second: CLTKEYVRGFLNPGRHRTRQ
The amyloid nucleation score of the first is higher: 0.375 ± 0.23 for the first, -0.271 ± 0.36 for the second.

FIDIACAHFGMKSCVVL and GVLVKNQGLLVNAIHSMQTN are within error of each other in amyloid nucleation score: 1.32 ± 0.9 for the first, -0.797 ± 2.4 for the second.

VVGRTEEEHLQHPSWCMCAL and MMSPR are within error of each other in amyloid nucleation score: 0.128 ± 1 for the first, -0.921 ± 2.4 for the second.

VRGLWFYN and LTYLNMALVCRFFYVFRHDW are within error of each other in amyloid nucleation score: 0.088 ± 0.72 for the first, 0.799 ± 0.57 for the second.

Going from SWVSAVIHRYGV to FFIKE, the amyloid nucleation score falls from 1.31 ± 0.15 to -0.067 ± 0.48.

TTYYRFNVDKTFSAVISAEF and NWCTNTRSIFTIRGTDAGTL are within error of each other in amyloid nucleation score: -1.02 ± 2.4 for the first, -0.721 ± 1.1 for the second.

MWYLMRTLTLIRFFVSPVGS and LYSLGTSHEIPCLM are within error of each other in amyloid nucleation score: 0.154 ± 0.31 for the first, 0.442 ± 0.42 for the second.

Compared with SSLNLMPQVGEGRHTGV, AGSGMLSKLVLLSRKSMVIT is higher in amyloid nucleation score: -0.648 ± 0.46 for the first, 1.92 ± 0.21 for the second.

KCFRYCKKNSNWLDCRLQIW and NKKNSSLNHSL are within error of each other in amyloid nucleation score: -1.26 ± 2.1 for the first, -0.077 ± 0.43 for the second.

HHCHSSGL and SIRCLIREKA are within error of each other in amyloid nucleation score: 0.981 ± 0.93 for the first, -0.238 ± 0.75 for the second.

YVCFRVDTCRLVCVRRWLNY and LLSFLRSAKIQTGR are within error of each other in amyloid nucleation score: 0.706 ± 0.51 for the first, 0.229 ± 0.38 for the second.

RMDFIHISTAIFSKEVDSRR and MNEERVGNLIFCRDSFMSSW are within error of each other in amyloid nucleation score: 1.04 ± 0.47 for the first, -0.096 ± 0.97 for the second.

TTDPVWFSAI and HQINRWRLLPRGGTFKDGHN are within error of each other in amyloid nucleation score: 0.346 ± 0.4 for the first, 0.703 ± 0.54 for the second.

GGEDLRKFLDMFVIVSKNTT and LLKIGVA are within error of each other in amyloid nucleation score: 0.67 ± 0.46 for the first, -0.465 ± 1.5 for the second.

Compared with PVMLF, WSGFQCSQDEWNLSMTIVRA is lower in amyloid nucleation score: 4.33 ± 0.11 for the first, -0.097 ± 0.78 for the second.

First: NCGTVHGHADGSYVCDMGSR
Second: VKHCQFR
The amyloid nucleation score of the first is lower: -0.022 ± 0.98 for the first, 1.69 ± 0.73 for the second.

Going from RCSLIPGRLPRNRFVRPDYC to VYLWGPKVYRSDWMGRHFK, the amyloid nucleation score rises from -1.53 ± 1.3 to 0.855 ± 0.72.

Going from MDRALQRSWRLGLRPGEGGS to CVSIQDHFRGYKALDPAWFV, the amyloid nucleation score rises from -0.455 ± 0.62 to 0.805 ± 0.27.

VDKYIIFIEIYIADSCDTLG and GRVCKHIFK are within error of each other in amyloid nucleation score: 0.374 ± 0.54 for the first, 0.375 ± 1.2 for the second.

Compared with RDSINLLDFGIVITGAKKWS, YLIFKSFK is higher in amyloid nucleation score: 0.218 ± 0.27 for the first, 1.25 ± 0.61 for the second.

YVGSDLFYRCQKNKYHRHSL and FYVSLRWV are within error of each other in amyloid nucleation score: -0.215 ± 0.97 for the first, 0.105 ± 0.45 for the second.

Compared with DTYITGSHCHFYMNCWKA, TSWRAWVGAVKRSAFFYTYY is lower in amyloid nucleation score: 8.519 ± 0.079 for the first, 0.444 ± 1.4 for the second.

Going from SIDTPYFALNRCALIHTSFT to YGNWFYIFFS, the amyloid nucleation score rises from 0.825 ± 0.52 to 6.471 ± 0.054.

GGWSGRSLRDCVCMVHIKVG and MRSIH are within error of each other in amyloid nucleation score: 0.071 ± 0.75 for the first, -0.11 ± 0.74 for the second.

FLRPTGHSGCQFGAMSSKKG and CLSYI are within error of each other in amyloid nucleation score: 0.464 ± 1.2 for the first, -0.172 ± 0.27 for the second.

DNINKLSWTRSILELG and WNDYAHILLKKRGGRYNLAG are within error of each other in amyloid nucleation score: -0.452 ± 0.62 for the first, -0.907 ± 0.74 for the second.

FWDVTPWCHSRDCAVLFSRA and HVVVRRIY are within error of each other in amyloid nucleation score: -1.37 ± 2.7 for the first, -0.065 ± 0.34 for the second.
